Source: a protein production outcome set (Wang et al. 2014)

Assay: label from the status in PepcDB records

MEGIVSIVFSTYNNREKALKCIESCLKQKYNKLFVIVADDGSNDGSQELFKKIQEKDSRFKFIPLVHKERGIARGKAISLAKKLESEYIYIIDSDMILEDNLIEKCMSFFNKNKNVGALIVPEYAFSEYENFYSKVKVFERNIINNSGEDMGKNSIEAARFWRMDAYDLSGGINPSQISFEETQPTIRYVEKGGVVKRAVFTKVYHDEKFVTLRNLLKKKMYYFSVMDKTIQSEEGGFIKTLKRWYFFRPVLYRGSNLKRYLRHPILTIGMINMYVILTLVGVSQILKRKK
protein production: failed

KSEKRMKLTLKGGAAVDPDSGLEHSAHVLEKGGKVFSATLGLVDIVKGTNSYYKLQLLEDDKENRYWIFRSWGRVGTVIGSNKLEQMPSKEDAIEHFMKLYEEKTGNAWHSKNFTKYPKKFYPLEI
protein production: not failed

GGDTELSDSPTLPLNSILAGNCIEILKTLPDNSVDLIFADPPYNLQLSGELFRPEGSRVDAVNNAWDKFDTFAAYDHFTRLWLKEAHRVLKEDGTIWVIGSYHNIFRVGTALQDQGFWILNDIIWRKSNPMPNFKGRRFTNAHETLIWASKSDKSRYVFNYASLKTFNDDLQMRSDWLLPICSGNERLKGENGQKIHPTQKPEALLYRIILASSRPDDVILDPFFGTGTTGVIARHLRRHWIGIEQDPTYIKAAQARIDKAEVF
protein production: not failed

MTGADHAHTRRRPLTGPLVKSLVFVVVTALATTVLGLSVAGTSVDSGTGTSTYKALFTDVTGLVDGDSVRISGVTVGEVTDVRVVDRRTAQVTFTVRDDRTLPRSTTAAVKYLNMVGQRYVSLGRGSGDLAGTLPEGGTVPLDRTTPALDLTLLFNGFKPLFEGLSPKDVNDLAGSIVQVLQGEGATVDSLIRHVGSLGTTVAAKDKVIGEVVENLTTVLDTLNDREDGFDDLVVTLQKLVTGFNQDRKPLGEAVAAMGDLTTVTAGLLEDGRAPLKKDVQELGRLSAGLGEHTPQIEDFLEKSPAKMTALARLSSYGSWFNLYLCEARVSGVSTSDGSKPPTGIAITESRCRGLEHHHHHH
protein production: failed

MIKYLIVMLIPFVIVYLLMPKFIEFANEKGFVDKPTGRKKHDKLTPLIGGVVMYIGFFATYLFGIDSTRQLSQTFIIFIASTLVIIIGVIDDYYKGKGKEFPIYPRVIIQILAATMVFKAGIVFRGITNPFTGEFTQFSGWIQYILTITWIFGVTTVINWSDGMDGLAGSISIISAMTMFVVALAKGQFNSAYMSITLVGSILAFLRYNRHPARVFMGDSGANFLGFILAIIALEGAFKQATALSILVPVLALGVPIFDNIFVIFRRFQSGKPVYEADRSQIHYRLQERGMSVKQIVSYICILSGCLSLVSLLIIMIIL
protein production: failed

DDDDDNGGSSVMNITGIYLEDAKSNVPDRLVDFARLGQLIRIEGEGFNGLKKVYINGYNCYFNPVFVSNKSFLVSVNSKVPTTEADENVRNTIRLVKDGGEYVYDFQIRAAAPSITKISNCMPNVGEPIIVYGSGLTEIAKVVFPGNVVVTEGIISDLDGEYFMVDMPAGVSEEGGSIFVEGSNGGAYSPAYFNYKKGLLLNFDGVGAQGAWGDSESMIQTTELESASIGEGNVSQGAYCRLPLERQLPVAAAKNRCAEVWTAGNGTDPDWLTLGVPAETPVAECAIQFEIYVPEPWSESGFLKICGQNGFNGGEWERDCYNYVPWLVDGKIVPFQTTGWQTVTVPFSEFYKSKASSGAWTTFADVTATRASASYANFGFYFENSDITLDKITGASSDKETEFLSKATSVKIYIDNWRVVPLTKPEYTDFPDEEEDAE
protein production: not failed

MLKLAQAEEAEAKRGKLKIFLGYAAGVGKTYAMLQAARERRHEGRDVVAAYVESHGRPETDALLEGLEILPAARIEYQGVMLPELDIDGVLARRPQLALVDELAHTNAPGSRHEKRWQDVEELLAAGIDVFTTVNVQHFESLNDVVAQITGIAVRETVPDRLLDLAAEIRLVDIPPEDLLQRLREGKVYVPEQAAFAAEKFFRAGNLIALRELSLRRAAVRVDEEMRAYMEARAIPGPWPAAERLLVSISGSPFSERLIRTTRRLADELKAPWFTVYVETPGNGRHEQENRKRVWKDLRLAESLGAQVATVTATSVAEALIDYARRHNVTRIVVGKPAKPRWREFLRLPLVDRIIRLSGAIDVHVVSYEPAEAGKGPVLPVRRGPISFSGYLASLALVVAASLACLLLRPFLAPTNMVMIYLLAVVLAALRLGLKPAILTAFLGVLAFDFFFIPPHLTFAVADTQYLITFVALFTVGVVISTLVSTVRERAEAVREREEQTASLYYLSRDLAAAADIETLVAAVIRNIGETLFARAAVLLPEGDRLRVAAASKGLKPDVKEMAVADWAFRNRQTAGQGTETLASAGFLYLPLQTSGSVLGVLGVRLKNDADYRSTQVRRMLDAFTSQTAMALERVQLSRQAEQAQILQARENLERALLNSISHDLRTPLVAITGALDTLRDKVHTLADESRLELLDTAWEEAERLNRFVGNLLDMTRLESGAIKLKRELSDVQDLIGCALAALERRIGERGIDVRLAPDLPLVRIDMVLMTQVLVNLLDNALKYSPPDSGVEITARVDGGRLRIEMADRGPGIPEQDLKRVFDKFYRIAVPEGAQGTGLGLSICKGIVEAHGGSIRAENRTGGGLRVIVTLPLAGGAKEGVSHGP
protein production: failed

MQPFVYMAAPARIVFSAGSSADVAEEIRRLGLSRALVLSTPQQKGDAEALASRLGRLAAGVFSEAAMHTPVEVTKTAVEAYRAAGADCVVSLGGGSTTGLGKAIALRTDAAQIVIPTTYAGSEVTPILGQTENGVKTTMRGPEILPEVVIYDAELTLGLPVAISMTSGLNAMAHAAEALYARDRNPIASMMAVEGLRAMIEALPVVRQAPHDIGARETALYGAWLCGTVLGAVGMSLHHKLCHTLGGSLDLPHAETHAVLLPHTIAYVEEAAPNLLAPLAALVGGRAGAGLFDFAARLGAPSSLAALGVGADDLDPMAELATANPYWCPRPIEKTAIRDLLQRAFEGARPA
protein production: not failed

MTQAKFVEGSILRHILVMSSTAAVGISALFVVDLLDIFFLSLLGEHELAAAVGYAGSISFFTTLIGIGLSIALGALVSRSIGAKDVELAKRLLLNSAVVTTLISVFVSIVVTTFIPELVTLVGASGHTAELAESYLYILVPSLPFICLAMALGGALRSVGDAKLSMMSTLAGGGVNAVLDPIFIFLFAMGIEGAALASVLARITVFVIAGRGVMVKHQLLGKFNRSDFKADLKPIFAIAGPAILTNIATPIGNAFVTRAIADFGDAYVAGWAVLGRLVPVTFGMIFALSGAIGPIVGQNFGAGRFDRVRESLTKAIQFCTLYVVVMSLLLFLLKSQIVSLFDMKGDSAALIEFFCSYIAVFFIFSGILFVANASFNNLGKAKYSTLFNVGKATLGTVPFVYVGAQLGGVYGVLIGQVIGSILFGVVGVWVAYRLVDKVVLTSTGHGVVSLATDADELMTDTVAPSATSPLSSSCAQMAQLTEEQEMEPVLPLIGQQDNSRR
protein production: failed

MDKDLKLRPRIKRLLSPAVMQAELLGGAAWLWVLMLGPSVKINLFTCFLTLSLACICWIQHTTTVFCIWRLLGIAYMLLLATGFFYLMDGDPEINIFALPLTITLAISSALLFVKFLDYLLSAVFVWLLTWLCWQEGVYGEIGIYVWIFCVASVCIGSVLNISYIKTLRAVLSLESKFRELAETDYLTSIPNRRAFMESFDSLIKGGESGYLIMLDIDNFKLINDRHGHEIGDRILCSMAACLRATSGSHCAGRIGGEEFGVLITGGDELTACDYILRLLETVRANFDPPYNYSCSVGMVRFSAASTMSEALSMADKSMYIAKRNGKDCAYFEGQEIVSFLFDDSKLKEKYPTETLSENTYQTDTQ
protein production: failed

MKRFIVRAVLILVSFVLLIQLWIFCSLAWWRTHPVETTMFMRLDYWSDSSKPIQQQWRDYDEISDNFKKAVVAAEDGKFVHHHGFDWEGIQYALEKNEKSGEVVNGGSTISQQLAKNLFLYNQRSLIRKGQEAIATWMMERMWSKQRILEVYMNSVQFGDHLYGVEAASHYYFHRSAQNLTRDQAAFLAALLPNPKYYQENRNDPRFKFKKRFTLKYMRYSEIP
protein production: failed

MARPKSKTKKILFAVEIIVLLLFIGGLYVYGQLNSKLDKINQPVLDDSKIKVNQEVQDSIDSQESTLTGYTTYALFGIDHRDKNTALGGENSDTIIIASVNNDTKDVKLVSVYRDTLLNLGNDTYSKANAAYAYGEAEQAITMLNTNLDLNISEYATVNFNALTTIIDDLGGLDMDMSYAEIVHMNNYCVETSEETGKDYTPIELPDRPDDIEAVQYHYHLNGVQATSYCRIRYTASLDMGRTERQRRVIQMIVSKAKSAGLGKIFKIMDDVFPMVTTSMTKDEILQLLPTLIGYSVDDTTGFPTSYKFSNVKGSIIVPTTLETNVIELHKFLYGDEAYTPSATVKANSEKILEIVGGESSLDDKQATVEENTTNDTVIFEKNGSGWSDTSSDYGSDSDSSGGGDYSGDETDNSGGSSSGGGDYSNDGSDNSGGDSSGGEDYEGPTTPEPDYGGDDNGGGDTGGDESGGGDTGGDESGGGDIVDEGSGDDSGAAAEATGTPDAA
protein production: failed

MQFKAEARRNKLMGLWVAEVLGKSGDEANAYAAEVVKADFEEAGHEDVMRKVLGDLDGKRPEAEVRAKYEGLMAVAKAQLMDEL
protein production: not failed

MNKPTLGIDLDTTLNTLDREWVKRYNEIYKDKLLPSDIKGWDIENYVKPECGKKIYDILKEPHFFRNLGVQPFAETALEELTSIFNIYIVSATHYKVCEDKGNWIKEKFPFISYQNIIFCHNKGLVHLDILIDDNPLNLENFKGNKILFDAHHNKSENRFVRARDWYEAKALCESLKDFL
protein production: failed

MSNYTESLQYLDSYISARVPVIGMRTIEQQRALRLLREAATQPRRSSMPFWIYTRATGLRDLRTNAPVQDDRSLTGAMDFAAAQFTSRANATVVFVDPDDLGGDTPITRHIAELARLADSNMGSIVLITDTPIWSGLQRLGMSLHLDLPDADEMYGILSGFLGDHHGHIPIEWDEADGRRAAEFLLGVTEAECINLMATIAAKGSIQKADVLGLAQAKDRIFSDLTGLERVQLKEADYTVGGLSSLREWLQRKHWQLHEDLRDSALRPPRGVLLVGVPGCGKSLSAKAIAHEWQLPLYRLDMGAIHGKYLGESEGRFREALAMADRVAPCVLWIDEIEKGLAGRDDGSGVPQRIIGQFLFWLQESQSRAFVVATANDIRSLPPELLRKGRFDELFFVDLPDAQDRKEIIELYYQRYLQGEPDRDQVDQLVDLSEGFAGSDIESALHDVGLEARRIGGADGLKASFLRDTFANTVPMSRVNPEQIEEIRAWGRERALPAGRSTVSAAPGGAKPSRRIVFMDD
protein production: failed

MLTENYNKQAIAQAFGRAAGCYDRFAELQRTSGERLLALMPAHSGLQVLDAGCGTGHFSRYWRQAGRNVTALDLSAEMLAYAREQHAADRYLEGDIENLPLADSCVDICYSNLAVQWCDSLPRALGELYRITRPGGVIAFATLADGSLSELSQAWQRLDGTQRTNRFLPHSVIDAACQPYRHHLLQEREVCLFPDVLALMKSLKGIGATWLHEGRTPGLLSRARLAALSACYPQEQGGYPLSYQLVYGVIYRDLEHHHHHH
protein production: failed

MHSQTLRLASYNIQKCVGLDLRRQPRRILQVLDAMGARIAVLQEADKRLPPRPAALPHFVLEEAGWQVVDLGGAGSLGWHGNAVIWKGAGITQLASAHHDLPGFEPRGAVRVEFDTPIGPLRVLGLHLGLLPASRRDQIVHLAHDLERLPPMPTVWAGDFNEWSRQPVLDHLAPMLRFLPARPSFPAPRPLGALDRIAHSPELSAVAHGVFAERPAPIASDHLPVWADLTRPV
protein production: failed

MEPWKQCAQWLIHCKVLPTNHRVTWDSAQVFDLAQTLRDGVLLCQLLNNLRAHSINLKEINLRPQMSQFLCLKNIRTFLTACCETFGMRKSELFEAFDLFDVRDFGKVIETLSRLSRTPIALATGIRPFPTEESINDEDIYKGLPDLIDETLVEDEEDL
protein production: failed

MSRRTVSLTVLALVLALLILVAPDVLLVIFAGVLFGVFLSAGGGLVQRVTGLQRGAGIALFIVLVLLALTGAFLAFAPAMFEQADALARQLPPAFEDLRDRISAYSWGPTLLSRLAPSRLLSSDGGFASTAVSATFGALGNVVIILFIGLYTAVDPGLYRRGLRALLAPPLRPRGDEVLAIADGTLRGWLGGQIISMTVVGVLTWLGLWLIGIPLAFILGLIAALLTFIPNIGPVLSAVPALLLALPEGAEQVGLVLAVFLTVQTFESYLVTPLIQKERVALPPALIISAQLLMGVLFGLMGLLLATPLAALALALVREVYVHDYLEEGPAKAQGPDRAD
protein production: failed
